From the supplement of paper PMC9732359
± gives the uncertainty stated by the source.

Assay: protein stability index of a GFP-peptide fusion (yeast GPS) (PSI 1-4); higher = more stable; sorted into four equal gates, so the index is relative within each strain
Procedure, shortened: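 Peptides tiling yeast proteins in 17-residue segments were fused downstream of GFP, with Cherry expressed from the same plasmid. As a pooled library in yeast, mid-log cultures grown in leucine-free medium were sorted into four equal gates by GFP/Cherry fluorescence ratio. Gate plasmids were PCR-amplified and Illumina-sequenced, and barcodes linked reads to strains. Each peptide received a protein stability index equal to the sum of each gate's read frequency times its gate number.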

Row | Sequence | protein stability index (doa10∆) | protein stability index (pdr5∆) | protein stability index (san1∆) | protein stability index (ubr1∆)
1 | DPRNLVNQTGSTKKDTV [YCG1] | 2.9 ± 0.097 | 3.15 ± 0.084 | 2.53 ± 0.075 | 2.86 ± 0.039
2 | NANEISANTNNTCTIST [SWP82] | 2.61 ± 0.041 | 2.61 ± 0.045 | 2.9 ± 0.04 | 2.62 ± 0.031
3 | RVLTQDGRVYIGQLMAF [SMB1] | 3.48 ± 0.098 | 3.26 ± 0.083 | 2.63 ± 0.09 | 3.05 ± 0.041
4 | LIELLTQMDGFDQSTNV [RPT3] | 2.33 ± 0.088 | 2.19 ± 0.075 | 1.56 ± 0.15 | 2.05 ± 0.08
5 | AISQSLRDESLTVDNLS [PRE5] | 2.96 ± 0.093 | 3.15 ± 0.089 | 3.33 ± 0.078 | 3.32 ± 0.06
6 | LQMYSKIRRHPNIMLIF [FAS1] | 1.72 ± 0.039 | 2.01 ± 0.042 | 1.97 ± 0.08 | 1.91 ± 0.034
7 | VPTKIARGTIEIVSDVK [RPP0] | 2.26 ± 0.25 | 2.38 ± 0.055 | 2 ± 0.17 | –
8 | LYVLPSFNIPRLTFKPW [YMR129W/POM152] | 2.2 ± 0.12 | 1.7 ± 0.096 | 1.69 ± 0.18 | 1.54 ± 0.096
9 | KTAIEGSYIDKKCPFTG [RPS11A] | 3.12 ± 0.069 | 3.37 ± 0.075 | 3.08 ± 0.051 | 3.27 ± 0.036
10 | SKGYVKTQFSWQYYYYT [RPS10A] | 2.81 ± 0.077 | 2.54 ± 0.06 | 2.76 ± 0.05 | 2.92 ± 0.056
11 | LMNGVKPFKSFLKKNII [FAS1] | – | – | 3.36 ± 0.16 | 3.27 ± 0.087
12 | VYINPSGEKIDFLLSDW [BRR2] | 1.61 ± 0.1 | 2.49 ± 0.097 | 3.22 ± 0.12 | 2.38 ± 0.073
13 | STLSNWSSEFAKWAPTL [SNF2] | 2.9 ± 0.054 | 2.45 ± 0.06 | 2.85 ± 0.055 | 2.26 ± 0.047
14 | PTIRSNAVLGLGDMAVC [YCS4] | 1.61 ± 0.088 | 1.64 ± 0.069 | 1.67 ± 0.13 | 1.71 ± 0.099
15 | TIYNNIREGQNQKIPDN [SIR3] | 2.96 ± 0.05 | 3.18 ± 0.064 | 2.98 ± 0.056 | 3.02 ± 0.045
16 | EVYMRYRNFMVNSYRLN [SWI3] | 2.19 ± 0.062 | 1.62 ± 0.06 | 1.46 ± 0.099 | 1.44 ± 0.097
17 | SIEVQSLPEFFTNRIPS [SWI3] | 2.64 ± 0.055 | 2.66 ± 0.048 | 2.51 ± 0.064 | 2.61 ± 0.047
18 | VKIHSQESLLSRTFDKY [SRP72] | 2.92 ± 0.053 | 2.79 ± 0.071 | 2.96 ± 0.055 | 2.57 ± 0.041
19 | NLLIQRLNFNQNSSKIV [SWI3] | 2.71 ± 0.053 | 2.81 ± 0.051 | 3.06 ± 0.038 | 2.93 ± 0.041
20 | ALVAGIERYPLKVTKKH [RPL27A] | 2.17 ± 0.27 | 2.51 ± 0.12 | 1.87 ± 0.24 | –
21 | DKFPYKKLELPKYIDEL [SWP82] | 2.73 ± 0.074 | 2 ± 0.058 | 2.56 ± 0.064 | 2.83 ± 0.08
22 | NRVGLTLDNIDDINKAK [ARP9] | 3.15 ± 0.056 | 2.93 ± 0.051 | 3.22 ± 0.045 | 2.43 ± 0.034
23 | PHHNQSPRNTYQCAMGK [RET1] | 2.68 ± 0.17 | 2.97 ± 0.14 | 3 ± 0.14 | 2.89 ± 0.24
24 | LTNGVTEHVRQNAKLLA [RRP6] | 1.6 ± 0.041 | 1.88 ± 0.073 | 1.99 ± 0.23 | 1.59 ± 0.069
25 | NNNNSNNHNMRNNSNNK [SWI1] | 3.054 ± 0.029 | 2.95 ± 0.031 | 2.762 ± 0.026 | 2.764 ± 0.021
26 | SGNIQLDEIIEIARQMR [RPL12A] | 3.07 ± 0.12 | 3 ± 0.12 | 3.05 ± 0.08 | 3.35 ± 0.14
27 | MKVFVTKHLMPQDLTFN [RPB7] | 2.96 ± 0.062 | 2.87 ± 0.054 | 2.54 ± 0.066 | 2.94 ± 0.051
28 | ISMILRNISFSDNNSRI [SWI1] | 3.02 ± 0.06 | 2.86 ± 0.059 | 2.77 ± 0.058 | 3.08 ± 0.04

Row | Sequence | protein stability index (doa10∆) | protein stability index (pdr5∆) | protein stability index (san1∆) | protein stability index (ubr1∆)
29 | LWVFQAFTCFCIKKIME [SRB8] | 1.69 ± 0.044 | 1.52 ± 0.04 | 1.27 ± 0.073 | 1.48 ± 0.037
30 | KLLFDHDELDMNECIAD [ESC2] | – | – | 1.03 ± 0.22 | –
31 | IAQSKKKNNKIKESSKK [SRP21] | 3.09 ± 0.1 | 2.96 ± 0.087 | 3.01 ± 0.072 | 3.16 ± 0.063
32 | FIYKKVLKEKDVPAYNV [SRB8] | 2.99 ± 0.086 | 3.05 ± 0.062 | 2.95 ± 0.058 | 3.13 ± 0.042
33 | QPNARALERYDEAEGRF [SMC1] | 3.44 ± 0.12 | 3.58 ± 0.1 | 3.17 ± 0.074 | 3.29 ± 0.097
34 | LRSRLQQQQQQQQQTSP [SNF5] | 2.58 ± 0.057 | 2.95 ± 0.058 | 2.76 ± 0.05 | 2.78 ± 0.049
35 | HIQEEEEQDVDMTGDEE [RPC19] | 3.38 ± 0.15 | 3.35 ± 0.13 | 3.05 ± 0.075 | 3.27 ± 0.063
36 | LNQIATLKIHLKKFLQE [IRR1] | 2.17 ± 0.18 | 1.91 ± 0.22 | – | –
37 | VSCYRPRRDGERKRKSV [RPS6A] | 1.79 ± 0.22 | 2.91 ± 0.17 | 3.51 ± 0.13 | 3.38 ± 0.082
38 | DVTHTLGMLDDNKMDSV [SMC4] | 3.15 ± 0.095 | 3.03 ± 0.082 | 3.21 ± 0.049 | 3.27 ± 0.097
39 | SYLETLTALGKEKEKER [MED2] | 2.57 ± 0.16 | 1.93 ± 0.12 | 2.34 ± 0.17 | 2.92 ± 0.057
40 | PSIVFIDEIDAIGTKRY [RPT2] | – | 2.28 ± 0.14 | 2.14 ± 0.17 | 2.92 ± 0.19
41 | QAYQFLNTFGSKICLSH [ITC1] | 2.06 ± 0.076 | 1.33 ± 0.049 | 1.63 ± 0.082 | 1.42 ± 0.054
42 | KIREDHINKIPSNSTTT [SRB8] | 2.63 ± 0.051 | 2.71 ± 0.044 | 2.54 ± 0.056 | 2.81 ± 0.034
43 | ENPDLSTKKKILGIHTS [RPT2] | 2.8 ± 0.14 | 3.02 ± 0.24 | 2.98 ± 0.087 | 2.9 ± 0.15
44 | ILEVGALASIQTFNFDS [RPN12] | 2.31 ± 0.095 | 2.65 ± 0.18 | 2.96 ± 0.17 | 2.86 ± 0.077
45 | SKLMPVLKSSVYEYVIA [RPC82] | 1.42 ± 0.061 | 1.57 ± 0.059 | 1.25 ± 0.1 | 1.46 ± 0.056
46 | EDLHEKNDSAEVRQETQ [NUT1] | 3.48 ± 0.1 | 3.28 ± 0.2 | 3.13 ± 0.083 | 3.53 ± 0.075
47 | ILDKIFYGVLDQGNGWL [RPN6] | 3.31 ± 0.096 | 2.65 ± 0.069 | 2.45 ± 0.059 | 3.11 ± 0.061
48 | IKIGIRVMKSLSINEKD [YCG1] | 1.49 ± 0.087 | 1.61 ± 0.061 | 1.36 ± 0.2 | 1.56 ± 0.091
49 | AEWSLVRIYSGLLKRGD [SNU114] | 2.95 ± 0.093 | 3.27 ± 0.1 | 3.26 ± 0.079 | 3.29 ± 0.12
50 | LIKNGKKVTAFVPNDGC [RPS23A] | 3.03 ± 0.11 | 3.31 ± 0.061 | 3.45 ± 0.039 | 3.38 ± 0.054
51 | SYDFLPLSNIKALLFFN [RPN12] | 2.14 ± 0.047 | 1.96 ± 0.048 | 1.42 ± 0.08 | 1.82 ± 0.044
52 | LVLNKSSIDRGFGRCET [RET1] | 3.03 ± 0.28 | 3.11 ± 0.23 | 2.76 ± 0.12 | –
53 | SVRSLQKRIENGGNSVI [SRP68] | 1.7 ± 0.085 | 1.82 ± 0.064 | 2.29 ± 0.096 | 1.85 ± 0.1
54 | DVLKENNDADKGRSYAY [RIP1] | 3.48 ± 0.13 | 3.5 ± 0.15 | 3.25 ± 0.092 | 3.03 ± 0.26
55 | WNVEKFKKDFEVNISSL [RPC40] | 2.03 ± 0.11 | 2.98 ± 0.12 | 2.6 ± 0.084 | 2.59 ± 0.082
